Data on 9 molecules can be found in patent EP4703388A1 (Jiangsu Hengrui Pharmaceuticals Co., Ltd., dated 2024).

In experiment [1] the target is T1, human tissue factor (TF) on MDA-MB-231, NCI-H358 and HCT116 cells (human, UniProt P13726 33-295).
T1 construct: whole, on cells; also called TF antigen; CD142
As to the kind of experiment: flow cytometry on MDA-MB-231 cells.

Experiment [2] has as its target T1, human tissue factor (TF) on MDA-MB-231, …. As to the kind of experiment: flow cytometry on H358 cells.
Experiment [3] addresses T2, human TF ECD-His (hTF-his) (human, UniProt P13726 33-251).
T2 construct: also called bio-hTF-his; human TF-His protein
As to the kind of experiment: SPR Biacore T200, antibody on Protein A chip, TF-His as analyte, 1:1 model.

The target of experiment [4] is T3, cyno TF ECD-His (cTF-his) (monkey (cyno)).
T3 construct: also called bio-cTF-his; monkey TF-His protein
T3 chain: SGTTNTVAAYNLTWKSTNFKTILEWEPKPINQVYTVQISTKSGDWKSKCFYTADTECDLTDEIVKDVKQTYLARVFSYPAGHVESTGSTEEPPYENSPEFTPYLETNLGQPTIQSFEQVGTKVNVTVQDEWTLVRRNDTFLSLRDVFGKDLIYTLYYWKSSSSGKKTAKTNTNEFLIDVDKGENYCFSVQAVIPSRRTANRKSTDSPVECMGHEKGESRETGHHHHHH
The experiment is described as above.

For another experiment, the target named is T4, rat TF ECD-His (rat, UniProt P42533 29-252).
T4 construct: also called rat TF-His protein; rat TF antigen protein
T4 sequence: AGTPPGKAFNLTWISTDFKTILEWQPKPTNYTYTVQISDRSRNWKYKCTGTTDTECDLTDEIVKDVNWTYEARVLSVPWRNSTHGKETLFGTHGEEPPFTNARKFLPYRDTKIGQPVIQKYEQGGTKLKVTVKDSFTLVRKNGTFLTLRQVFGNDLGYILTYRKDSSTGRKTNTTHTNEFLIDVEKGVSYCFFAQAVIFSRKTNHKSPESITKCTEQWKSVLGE
As to the kind of experiment: ELISA, TF-His coated at 4 µg/mL, antibody titrated.

The target of the next experiment is T5, mouse TF ECD-His (mouse, UniProt P20352 29-251).
T5 construct: also called Mouse TF-His protein; mouse TF antigen protein
T5 sequence: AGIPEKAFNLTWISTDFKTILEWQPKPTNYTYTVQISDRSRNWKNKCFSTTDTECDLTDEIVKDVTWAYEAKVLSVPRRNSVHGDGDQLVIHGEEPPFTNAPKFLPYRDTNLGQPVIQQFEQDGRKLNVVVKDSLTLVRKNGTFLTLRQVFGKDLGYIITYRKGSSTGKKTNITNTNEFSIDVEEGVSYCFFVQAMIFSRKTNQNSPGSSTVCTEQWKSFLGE
As to the kind of experiment: ELISA, TF-His coated at 4 µg/mL, antibody titrated.

Experiment [5] has as its target T1, human tissue factor (TF) on MDA-MB-231, …. As to the kind of experiment: cell-based or functional assay.
Experiment [6] shares this target. Kind of experiment: flow cytometry on HCT116 cells.
The target in experiment [7] is T6, HuRatTF, human-rat hybrid TF antigen (human-rat hybrid).
T6 construct: also called HuRatTF protein; human-rat hybrid TF protein
T6 chain: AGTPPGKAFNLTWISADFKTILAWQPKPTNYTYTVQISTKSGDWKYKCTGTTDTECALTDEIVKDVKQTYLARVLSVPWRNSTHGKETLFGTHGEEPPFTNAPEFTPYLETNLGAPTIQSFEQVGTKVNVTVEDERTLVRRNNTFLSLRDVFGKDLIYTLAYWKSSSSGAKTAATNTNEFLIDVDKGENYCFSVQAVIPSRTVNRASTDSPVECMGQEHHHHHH
As to the kind of experiment: ELISA, HuRatTF coated, antibody titrated.

Experiment [8] addresses T2, human TF ECD-His (hTF-his). Kind of experiment: ELISA, antibody captured by anti-human IgG, biotinylated TF-his titrated.
The target in experiment [9] is T3, cyno TF ECD-His (cTF-his). Described as above.
For experiment [10], the target named is T1, human tissue factor (TF) on MDA-MB-231, …. Kind of experiment: cell-based or functional assay. This is another data set of the same source.

Substitutions are numbered along the chain they refer to.

B1: hu67-4 (antibody, human IgG1, kappa, V domains shown)
VH: EVQLQESGPGLVKPSQTLSLTCTVSGFSLTNYGVNWIRQPPRKGLEWIGVIWSRGNTDYNAAFISRVTISKDNSKSQVSLKLSSVTAADTAVYYCARKDAVVATDALDYWGQGTTVTVSS
VL: DIVMTQSPKSLAVSLGERATINCKASQDVSTAVAWYQQKPGQPPKLLIYSTSYRYTGVPDRFSGSGSGTDFTLTISSLQAEDVAVYYCQQHYSTPYTFGGGTKVEIKR
For the molecule B1, a half-maximal effect in experiment [1] (EC50) was put at 18 nM. Besides, in [2], the response was half-maximal at 90.5 nM (EC50). Besides, in experiment [3], the affinity, expressed as Kd, was 18.9 nM; the koff came to 0.000766 s⁻¹; the kon amounted to 40500 M⁻¹ s⁻¹. In experiment [4], this molecule showed an equilibrium dissociation constant (Kd) of 15.5 nM, a koff of 0.000523 s⁻¹ and a kon of 33700 M⁻¹ s⁻¹.

B2: hu67-14 (antibody, human IgG1, kappa, V domains shown)
VH: EVTLKQSGPVLVKPTQTLTLTCTVSGFSLTNYGVNWIRQPPRKGLEWLGVIWSRGNTDYNAAFISRLTISKDNSKSQVVLKMTNMDPVDTATYYCARKDAVVATDALDYWGQGTTVTVSS
VL: DIQMTQSHKFLSASVGDRVTITCKASQDVSTAVAWYQQKPGKSPKLLIYSTSYRYTGVPSRFSGSGSGTDFTFTISSLQPEDIATYYCQQHYSTPYTFGGGTKVEIKR
In experiment [1], B2 came in with an EC50 of 18.9 nM. The same molecule registered an EC50 in experiment [2] of 107 nM. In experiment [3], the Kd was found to be 20.1 nM, the koff was 0.000624 s⁻¹ and the on-rate (kon) is 31000 M⁻¹ s⁻¹. In experiment [4], the dissociation constant Kd came out at 12.9 nM, the off-rate (koff) was determined as 0.000399 s⁻¹ and the kon was determined as 31000 M⁻¹ s⁻¹.

B3: hu10H10-29 (antibody, V domains shown)
VH: EVQLVQSGSELKKPGASVKVSCKASGYTFITYWIEWVKQRPGQGLEWMGDILPYSGSTNYNENFKGRATFSADTSVSTAYLQISSLKAEDTAVYYCARSGYYGNSGFAYWGQGTLVTVSS
VL: DIQMTQSPSSLSASVGDRVTITCKSSQSLLSSGNQKNYLTWYQQKPGKAPKLLIYWASTRESGVPSRFSGSGSGTDFTLTISSLQPEDFATYYCQNDYTYPLTFGQGTKLEIK
notes: H11+L1; Full-length IgG
Regarding B3, the values for the concentration giving a half-maximal response (EC50) in experiment [1] and in [2] were 1.09 nM and 0.45 nM, respectively. For the same molecule, the figures for the Kd in [3] and in experiment [4] were 0.545 nM and 0.642 nM, respectively. Also, the off-rate constant (koff) in experiment [3] is 7.45e-05 s⁻¹; in experiment [4], 9.83e-05 s⁻¹. The association rate constant (kon) in experiment [3] came to 137000 M⁻¹ s⁻¹; in [4] it was 153000 M⁻¹ s⁻¹.

B4: hu10H10-53 (antibody, V domains shown)
VH: B3 VH
VL: B3 VL with G33S, S62E
notes: H11+L6; Full-length IgG
As to B4, the EC50 in experiment [1] was 1.09 nM; in experiment [2], 0.41 nM. The dissociation constant (Kd) in experiment [3] stood at 0.47 nM; in experiment [4] it was 0.375 nM. For the same molecule, the koff came out at 7.34e-05 s⁻¹ in experiment [3] and 6.77e-05 s⁻¹ in [4]. Also, the on-rate constant (kon) is 156000 M⁻¹ s⁻¹ in experiment [3] and 181000 M⁻¹ s⁻¹ in [4].

B5: hu10H10-77 (antibody, V domains shown)
VH: B3 VH
VL: B3 VL with K24Q
notes: H11+L9; Full-length IgG
Take B5: the EC50 in experiment [1] was 1.64 nM; in experiment [2] it was 0.68 nM; in experiment [6], 0.47 nM; in [7] it was 2 nM; in experiment [8] it was 0.0035 µg/mL; in experiment [9], 0.0027 µg/mL. Moreover, the binding result in the experiment with rat TF ECD-His and in the experiment with mouse TF ECD-His was “no binding” each time. Moreover, the “Inhibition rate (%), Factor-VII-Human Chromogenic-Activity blood coagulation pathway assay (FVIIa, MDA-MB-231 cells, FX; antibody 20 µg/mL)” value in experiment [5] was -1.8%. In addition, the Kd in [3] amounted to 0.749 nM; in experiment [4], 0.677 nM. In addition, the koff in [3] stood at 0.00011 s⁻¹; in experiment [4], 0.000114 s⁻¹. Also, the kon in experiment [3] worked out at 146000 M⁻¹ s⁻¹; in experiment [4], 169000 M⁻¹ s⁻¹. For the same molecule, the “Maximum (OD450 nm)” value in [7] worked out at 1.39 OD450 nm. The Emax was found to be 1 in experiment [8] and 1.13 in experiment [9]. For the same molecule, the “EC50 (nM), IL8 assay (IL-8 of MDA-MB-231 cells after antibody and FVIIa)” value in experiment [10] is 0.412 nM.

B6: hu10H10-58 (antibody, V domains shown)
VH: B3 VH with K38R, Y54G, T69V
VL: B3 VL with G33S, S62E
notes: H2+L6; Full-length IgG
For the molecule B6, the values for the 50% effective concentration (EC50) in experiment [1] and in experiment [2] were 1.43 nM and 1.09 nM, respectively.

B7: hu10H10-57 (antibody, V domains shown)
VH: B3 VH with K38R, Y54G, T69V
VL: B3 VL with S31D, S62E
notes: H2+L5; Full-length IgG
B7: the concentration giving a half-maximal response (EC50) in experiment [1] amounted to 1.12 nM; in experiment [2], 1.02 nM.

B8: chimeric antibody CH67 (antibody, human IgG1, kappa, V domains shown)
VH: QVQLKQSGPGLVQPSQSLSITCIVSGFSLTNYGVNWVRQSPRKGLEWLGVIWSRGNTDYNAAFISRLIISKDNSKSQVFLKMNRLQADDTAIYYCARKDAVVATDALDYWGQGTSVTVSS
VL: DIVMTQSHKFMSTSLGDRVSITCKASQDVSTAVAWYQQKPGQSPKLLIYSTSYRYTGVPDRFTGSGSGTDFTFTISSVQAEDLAVYYCQQHYSTPYTFGGGTKLEIKR
notes: Murine 67# variable regions + human constant regions
For B8, the concentration for a half-maximal effect (EC50) amounted to 16.5 nM in [1] and 55.9 nM in [2]. For the same molecule, the equilibrium dissociation constant (Kd) in experiment [3] came out at 36.7 nM; in experiment [4], 16 nM. Also, the dissociation rate constant (koff) in [3] is 0.000969 s⁻¹; in experiment [4] it was 0.000473 s⁻¹. The on-rate (kon) in experiment [3] worked out at 26400 M⁻¹ s⁻¹; in experiment [4] it was 29500 M⁻¹ s⁻¹.

B9: hu310-2 (antibody, human IgG1, kappa, V domains shown)
VH: EVQLVQSGAEVKKPGASVKVSCKASGYSFTGYYMNWVRQAPGQGLEWMGEINPSTGGSTYNQKFKARVTMTVDQSTSTVYMELSSLRSEDTAVYYCARRELGGPFGYWGQGTTVTVSS
VL: SIVMTQSPDSLAVSLGERATINCKASQSVSNGIAWYQQKPGQSPKLLIYFASNRYTGVPDRFSGSGYGTDFTLTISSLQAEDVAVYYCQQDYSSPWTFGGGTKVEIKR
Consider B9, for which the EC50 in experiment [1] stood at 1.32 nM; in [2], 0.67 nM; in experiment [6] it was 0.34 nM; in experiment [7] it was 2.13 nM; in [8] it was 0.0529 µg/mL; in experiment [9], 0.041 µg/mL. In addition, the binding result with rat TF ECD-His and with mouse TF ECD-His was “no binding” each time. The “Inhibition rate (%), Factor-VII-Human Chromogenic-Activity blood coagulation pathway assay (FVIIa, MDA-MB-231 cells, FX; antibody 20 µg/mL)” value in experiment [5] was -2.8%. The Kd in experiment [3] stood at 18.5 nM; in experiment [4], 19.2 nM. In addition, the koff in [3] worked out at 0.00699 s⁻¹; in [4], 0.00637 s⁻¹. In addition, the association rate constant (kon) in [3] was 378000 M⁻¹ s⁻¹; in experiment [4], 332000 M⁻¹ s⁻¹. In addition, in experiment [7], the “Maximum (OD450 nm)” value is 0.428 OD450 nm. The Emax in [8] and in experiment [9] was 0.92 each time. For the same molecule, in experiment [10], the “EC50 (nM), IL8 assay (IL-8 of MDA-MB-231 cells after antibody and FVIIa)” value was 0.407 nM.
